The chains are these.
B1: TCTP-GST (GST-tagged recombinant TCTP) (natural protein, human, UniProt P13693 1-172, looked up)
chain: MIIYRDLISHDEMFSDIYKIREIADGLCLEVEGKMVSRTEGNIDDSLIGGNASAEGPEGEGTESTVITGVDIVMNHHLQETSFTKEAYKKYIKDYMKSIKGKLEEQRPERVKPFMTGAAEQIKHILANFKNYQFFIGENMNPDGMVALLDYREDGVTPYMIFFKDGLEMEKC
notes: translationally controlled tumor protein (TCTP); also called GST-tagged TCTP; TCTP-GST protein; source: E. coli, purified (GST fusion protein purification kit)

Holding throughout (test): pull-down; His-tagged Apaf-1 variants or WDR immobilised on Handee spin column, incubated with TCTP-GST; eluates separated by SDS-PAGE and silver stained
Holding throughout (conditions): both partners purified

For assay [1], the target named is T1, Full APAF-1 (residues 1-1194), His-tagged (UniProt O14727-3 1-1194).
T1 construct: Apaf-1, full length, printed length 1194 residues (residues 1-1194): CARD 1-97, CED-4 98-412, WD-40 repeats 413-1194; also called full-length Apaf-1; His-Apaf-1; source: E. coli BL21(DE3)pLysS, purified (Ni Sepharose beads); not shown: His tag, C-terminal, kept
T1 sequence (looked up): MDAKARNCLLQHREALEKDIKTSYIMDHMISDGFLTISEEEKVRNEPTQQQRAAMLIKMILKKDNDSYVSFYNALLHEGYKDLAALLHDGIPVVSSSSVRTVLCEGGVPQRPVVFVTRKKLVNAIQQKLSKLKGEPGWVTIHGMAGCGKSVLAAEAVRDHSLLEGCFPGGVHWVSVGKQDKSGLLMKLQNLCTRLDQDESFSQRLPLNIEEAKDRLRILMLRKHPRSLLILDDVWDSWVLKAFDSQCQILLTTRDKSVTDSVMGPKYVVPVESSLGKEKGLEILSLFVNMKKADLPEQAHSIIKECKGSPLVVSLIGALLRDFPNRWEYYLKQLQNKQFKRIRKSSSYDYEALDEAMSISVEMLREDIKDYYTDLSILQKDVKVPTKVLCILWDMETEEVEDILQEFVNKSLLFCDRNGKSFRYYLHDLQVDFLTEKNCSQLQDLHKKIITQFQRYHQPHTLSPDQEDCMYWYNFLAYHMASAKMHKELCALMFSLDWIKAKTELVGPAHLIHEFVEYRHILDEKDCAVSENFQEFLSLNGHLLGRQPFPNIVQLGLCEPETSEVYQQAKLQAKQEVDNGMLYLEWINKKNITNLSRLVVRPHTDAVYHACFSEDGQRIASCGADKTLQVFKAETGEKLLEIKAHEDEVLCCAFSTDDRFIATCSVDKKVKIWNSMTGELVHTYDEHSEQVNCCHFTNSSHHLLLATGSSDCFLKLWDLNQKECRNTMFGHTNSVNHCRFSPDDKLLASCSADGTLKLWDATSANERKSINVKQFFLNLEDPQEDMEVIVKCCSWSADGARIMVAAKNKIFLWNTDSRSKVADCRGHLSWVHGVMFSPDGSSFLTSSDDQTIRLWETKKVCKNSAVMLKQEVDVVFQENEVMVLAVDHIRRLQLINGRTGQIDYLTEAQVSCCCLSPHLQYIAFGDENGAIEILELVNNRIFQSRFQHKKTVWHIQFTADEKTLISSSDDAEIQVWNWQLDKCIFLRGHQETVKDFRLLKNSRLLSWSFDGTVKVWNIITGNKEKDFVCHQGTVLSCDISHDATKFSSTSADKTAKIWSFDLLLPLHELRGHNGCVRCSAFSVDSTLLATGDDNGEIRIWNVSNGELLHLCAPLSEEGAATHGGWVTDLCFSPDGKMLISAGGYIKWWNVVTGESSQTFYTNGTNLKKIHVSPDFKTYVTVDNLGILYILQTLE

For assay [2], the target named is T2, APAF-530 (Apaf-1 residues 1-530), His-tagged (UniProt O14727-3 1-530).
T2 construct: Apaf-1 residues 1-530; source: E. coli BL21(DE3)pLysS, purified (Ni Sepharose beads); not shown: His tag, C-terminal, kept
T2 sequence (looked up): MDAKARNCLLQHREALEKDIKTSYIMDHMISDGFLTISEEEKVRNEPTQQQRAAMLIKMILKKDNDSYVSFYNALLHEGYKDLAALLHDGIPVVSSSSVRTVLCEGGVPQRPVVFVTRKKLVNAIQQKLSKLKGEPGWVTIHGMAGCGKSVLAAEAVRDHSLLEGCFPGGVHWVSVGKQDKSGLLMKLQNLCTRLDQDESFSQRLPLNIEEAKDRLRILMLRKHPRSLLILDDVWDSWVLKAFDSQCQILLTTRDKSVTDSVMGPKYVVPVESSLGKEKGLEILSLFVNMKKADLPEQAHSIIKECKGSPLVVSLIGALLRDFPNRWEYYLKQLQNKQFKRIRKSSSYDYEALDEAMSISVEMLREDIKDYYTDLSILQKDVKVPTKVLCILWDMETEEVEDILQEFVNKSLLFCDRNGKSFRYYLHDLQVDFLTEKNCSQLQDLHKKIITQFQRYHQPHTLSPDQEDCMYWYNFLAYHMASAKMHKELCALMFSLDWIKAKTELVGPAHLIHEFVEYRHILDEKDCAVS

Assay [3] concerns the target T3, APAF-420 (Apaf-1 residues 1-420), His-tagged (UniProt O14727-3 1-420).
T3 construct: Apaf-1 residues 1-420; source: E. coli BL21(DE3)pLysS, purified (Ni Sepharose beads); not shown: His tag, C-terminal, kept
T3 sequence (looked up): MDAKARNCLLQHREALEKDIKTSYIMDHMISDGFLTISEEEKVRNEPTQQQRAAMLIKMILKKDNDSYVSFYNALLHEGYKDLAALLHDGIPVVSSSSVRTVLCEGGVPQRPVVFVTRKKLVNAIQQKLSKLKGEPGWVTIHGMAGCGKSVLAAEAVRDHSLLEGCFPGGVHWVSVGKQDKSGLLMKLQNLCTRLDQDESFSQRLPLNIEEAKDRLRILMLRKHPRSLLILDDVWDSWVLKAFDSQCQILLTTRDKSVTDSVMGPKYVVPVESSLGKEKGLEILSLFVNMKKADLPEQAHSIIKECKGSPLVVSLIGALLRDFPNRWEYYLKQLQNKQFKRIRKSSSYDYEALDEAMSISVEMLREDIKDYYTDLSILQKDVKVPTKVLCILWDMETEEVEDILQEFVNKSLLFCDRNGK

Assay [4] has as its target B1.

For the molecule B1, the binding result in assay [1], in assay [2] and in assay [3] was “binds” each time.

B2: APAF-97 (Apaf-1 residues 1-97, CARD), His-tagged (domain or fragment, UniProt O14727 1-97, looked up)
chain: MDAKARNCLLQHREALEKDIKTSYIMDHMISDGFLTISEEEKVRNEPTQQQRAAMLIKMILKKDNDSYVSFYNALLHEGYKDLAALLHDGIPVVSSS
notes: Apaf-1 residues 1-97 (caspase recruitment domain, CARD); also called APF-97; CARD of Apaf-1; source: E. coli BL21(DE3)pLysS, purified (Ni Sepharose beads); not shown: His tag, C-terminal, kept
Turning to B2, the binding result in assay [4] was “binds”.

(Values after article PMC4015309, “Interaction of translationally controlled tumor protein with Apaf-1 is involved in the development of chemoresistance in HeLa cells” (BMC Cancer, 2014).)
